T1: HA-tagged full-length human LGR7 expressed on cells (HA-LGR7/DG44, HA-LGR7/BaF3) (human, UniProt Q9HBX9 1-757)
T1 construct: Full-length human LGR7 with an N-terminal HA tag, forcedly expressed in DG44 (CHO-derived) or Ba/F3 cells; also called HA-LGR7/DG#24; HA-LGR7/DG44#24
T1 sequence: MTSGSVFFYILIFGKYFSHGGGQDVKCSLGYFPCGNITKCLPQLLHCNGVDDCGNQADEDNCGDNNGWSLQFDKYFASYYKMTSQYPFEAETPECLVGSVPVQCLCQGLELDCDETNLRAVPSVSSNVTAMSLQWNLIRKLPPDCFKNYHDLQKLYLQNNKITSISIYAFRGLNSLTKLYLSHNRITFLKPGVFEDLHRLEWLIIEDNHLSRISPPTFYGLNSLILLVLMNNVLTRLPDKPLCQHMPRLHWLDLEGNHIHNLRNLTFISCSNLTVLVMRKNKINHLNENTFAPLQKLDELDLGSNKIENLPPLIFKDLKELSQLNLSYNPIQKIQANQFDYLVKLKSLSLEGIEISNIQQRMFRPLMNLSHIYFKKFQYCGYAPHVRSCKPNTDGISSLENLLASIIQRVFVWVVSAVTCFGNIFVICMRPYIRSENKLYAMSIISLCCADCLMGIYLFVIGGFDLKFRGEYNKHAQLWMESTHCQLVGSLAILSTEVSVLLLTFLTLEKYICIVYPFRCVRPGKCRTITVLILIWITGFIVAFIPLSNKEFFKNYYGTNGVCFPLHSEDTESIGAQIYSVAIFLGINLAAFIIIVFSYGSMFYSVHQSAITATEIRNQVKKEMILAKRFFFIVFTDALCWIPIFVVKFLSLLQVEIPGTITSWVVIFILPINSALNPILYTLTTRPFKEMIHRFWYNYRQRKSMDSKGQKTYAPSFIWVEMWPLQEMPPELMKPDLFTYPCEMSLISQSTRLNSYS

B1: 22DA17 (antibody, IgG2b, V domains shown)
VH: QVQLQQSGAELVRPGVSVKLSCKASGYSLTTYWMNWVKQRPGQGLEWIGMIHPSDSETVINQKFKDKATLTVDKSSSTAYMQLSSPTSEDSAVYYCARWDYDYYFDYWGQGTTLTVSS
VL: DVLMTQTPLSLPVSLGDQASISCRSSQSIVHSNGNTYLEWYLQKPGQSPNLLIYKVSNRFSGVPDRFSGSGSGTDFTLKISRVEAEDLGVYYCFQGSHVPFTFGSGTKLEIK
notes: Mouse hybridoma antibody, isotype IgG2b; also called Bio-22DA17 (biotinylated form)
B2: 22DA23 (antibody, IgG1, V domains shown)
VH: EIQLQQSRPELVRPGASVKVSCQASGYAFTNYNMYWVKQSHGKSLEWIGYIDPYNDDTTYNQKFKGKATLTVDKSSSTAYMHLNSLTSEDSAVFYCARFRLGYYAMDYWGQGASVTVSS
VL: DIVLTQSPASLAVSLGQRATISCKASQSVDYDLDSYMNWYQQKPGQPPKLLIYVASNLESGIPARFSGSGSGTDFTLNIHPVEEEDAATYYCQQSNEDPFTFGSGTKLEIK
notes: Mouse hybridoma antibody, isotype IgG1; also called anti-human LGR7 monoclonal antibody 22DA23
B3: 22SD7 (antibody, IgG2a, V domains shown)
VH: QVQLQQPGAELVRPGASVKLSCKASGYTFTSYWMNWVKQRPEQGLEWIGRIDPYDSETHYNQKFKDKAILTVDKSSSTAYMQLSSLTSEDSAVYYCARWEVVAPWDYWGQGTTLTVSS
VL: DIVMTQAAPSVPVTPGESVSISCRSSKSLLHSNGNTYLYWFLQRPGQSPQLLIYRMSNLASGVPDRFSGSGSGTAFTLRISRVEAEDVGVYYCMQHLEYPWTFGGGTKLEIK
notes: Mouse hybridoma antibody, isotype IgG2a; also called anti-LGR7 monoclonal antibody 22SD7

What follows are binders tested against T1, HA-tagged full-length human LGR7 … (assay: flow cytometry, hybridoma supernatant on LGR7-expressing DG44 cells against parental DG44 cells).
Procedure: The binding of the obtained hybridomas to human LGR7/DG44 cells was evaluated by flow cytometry. The cell line expressing human LGR7 suspended in FACS buffer (2% FBS/PBS/0.05% NaN₃) was diluted to 1×10⁶ cells/mL using FACS buffer, and this was aliquoted into a Falcon 353910 round-bottom 96-well plate at 50 μL/well. The hybridoma culture supernatant diluted to a suitable concentration was added to the wells containing the cells, and this was reacted for 60 minutes on ice. Next, the cells were rinsed once with FACS buffer. As a secondary antibody, a goat F(ab′)₂ fragment anti-mouse IgG Fcγ-FITC (Beckman Coulter) was added to the wells containing the cells, and this was reacted for 30 minutes on ice. After the reaction, the supernatant was removed by centrifugation, and the cells were suspended in 100 μL of FACS buffer, and subjected to flow cytometry. The FACS Calibur (Becton Dickinson) was used for the flow cytometry. A gate for the viable cell population was established using a forward scatter/side scatter dot blot, and an FL1 histogram was produced for the cells included in the population, and their binding activity was evaluated.
The hybridoma supernatants were reacted with DG44 cells induced to express LGR7 and the parental DG44 cells, respectively. Thus, hybridomas that specifically react with LGR7-expressing cells were obtained. The hybridomas from the wells were made into single clones by the limiting dilution method. The isotype of each antibody was analyzed using an IsoStrip® mouse monoclonal antibody isotyping kit (Roche Diagnostics). As a result, the isotype of 22DA6, 22DA7, 22DA11, 22DA12, 22DA23, and 22DA24 is IgG1; and the isotype of 22DA4, 22DA10, 22SD7, 22SD25, 22SD31, and 22SD48 is IgG2a; and the isotype of 22DA17 and 22DA20 is IgG2b. Expansion culture of a single-clone hybridoma was performed, and then the antibody was purified from the culture supernatant using a protein G column according to the manual. The purified antibody was subjected to protein quantification by DC Protein Assay, etc.
B1: binds.
B2: binds.
B3: binds.

— US20120014870A1 (FORERUNNER PHARMA RESEARCH, published 2012)
